Measured values published in article PMC5563082 (2017).

T1: human NL5_(ECTO) (NL4(Y); Gln42-Glu602), immobilised for SPR (human, UniProt Q8NFZ3-1 42-602, biotin on the Avitag (in vivo biotinylation by BirA))
T1 chain: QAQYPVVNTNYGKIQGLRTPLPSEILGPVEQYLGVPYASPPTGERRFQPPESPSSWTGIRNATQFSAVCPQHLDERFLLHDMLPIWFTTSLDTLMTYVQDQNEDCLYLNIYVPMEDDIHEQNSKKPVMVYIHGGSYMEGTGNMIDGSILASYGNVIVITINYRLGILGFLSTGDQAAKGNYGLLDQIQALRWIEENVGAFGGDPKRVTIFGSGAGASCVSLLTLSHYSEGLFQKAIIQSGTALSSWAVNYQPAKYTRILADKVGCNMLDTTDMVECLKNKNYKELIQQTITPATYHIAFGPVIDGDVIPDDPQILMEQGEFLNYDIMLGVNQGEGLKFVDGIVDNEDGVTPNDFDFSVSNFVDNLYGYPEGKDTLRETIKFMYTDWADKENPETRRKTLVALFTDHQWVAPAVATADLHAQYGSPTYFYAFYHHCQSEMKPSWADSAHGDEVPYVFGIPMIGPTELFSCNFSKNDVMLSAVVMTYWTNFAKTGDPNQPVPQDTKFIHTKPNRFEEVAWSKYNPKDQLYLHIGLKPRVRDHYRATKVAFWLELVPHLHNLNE

T2: human NL1(+A1+A2–B)_(ECTO), immobilised for SPR (human, biotin on the Avitag (in vivo biotinylation by BirA))
T2 chain: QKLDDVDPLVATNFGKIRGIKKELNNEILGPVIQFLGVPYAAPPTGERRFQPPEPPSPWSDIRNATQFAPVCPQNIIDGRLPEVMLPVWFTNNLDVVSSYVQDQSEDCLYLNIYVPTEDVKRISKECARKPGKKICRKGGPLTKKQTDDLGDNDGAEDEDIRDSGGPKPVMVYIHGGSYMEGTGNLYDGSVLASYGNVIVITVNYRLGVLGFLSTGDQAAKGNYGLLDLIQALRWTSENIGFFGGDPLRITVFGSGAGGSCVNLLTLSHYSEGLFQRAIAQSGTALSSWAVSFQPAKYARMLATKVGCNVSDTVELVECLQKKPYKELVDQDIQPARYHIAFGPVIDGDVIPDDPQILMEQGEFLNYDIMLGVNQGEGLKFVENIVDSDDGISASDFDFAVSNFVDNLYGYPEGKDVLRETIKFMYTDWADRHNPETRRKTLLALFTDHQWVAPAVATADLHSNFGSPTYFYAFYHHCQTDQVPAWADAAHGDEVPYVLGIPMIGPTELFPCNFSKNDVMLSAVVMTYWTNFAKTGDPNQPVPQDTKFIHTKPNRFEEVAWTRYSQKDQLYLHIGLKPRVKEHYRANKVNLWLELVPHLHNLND

T3: human NL1(+A1–B)_(ECTO), immobilised for SPR (human, biotin on the Avitag (in vivo biotinylation by BirA))
T3 chain: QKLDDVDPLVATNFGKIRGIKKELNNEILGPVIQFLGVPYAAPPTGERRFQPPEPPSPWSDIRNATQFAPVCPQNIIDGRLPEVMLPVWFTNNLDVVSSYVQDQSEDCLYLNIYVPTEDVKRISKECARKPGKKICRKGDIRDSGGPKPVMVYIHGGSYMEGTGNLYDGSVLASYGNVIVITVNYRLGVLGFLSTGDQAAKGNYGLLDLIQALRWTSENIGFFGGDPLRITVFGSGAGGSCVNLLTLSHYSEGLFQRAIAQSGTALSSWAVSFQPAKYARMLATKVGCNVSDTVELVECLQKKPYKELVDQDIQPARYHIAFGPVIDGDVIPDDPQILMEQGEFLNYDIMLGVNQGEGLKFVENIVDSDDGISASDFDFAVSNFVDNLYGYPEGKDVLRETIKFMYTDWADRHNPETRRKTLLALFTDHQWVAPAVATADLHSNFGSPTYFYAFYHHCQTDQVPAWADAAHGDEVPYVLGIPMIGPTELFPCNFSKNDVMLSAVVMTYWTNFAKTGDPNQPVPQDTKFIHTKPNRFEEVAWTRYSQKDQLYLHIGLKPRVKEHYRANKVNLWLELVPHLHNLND

T4: human NL1(+A2–B)_(ECTO), immobilised for SPR (human, biotin on the Avitag (in vivo biotinylation by BirA))
T4 chain: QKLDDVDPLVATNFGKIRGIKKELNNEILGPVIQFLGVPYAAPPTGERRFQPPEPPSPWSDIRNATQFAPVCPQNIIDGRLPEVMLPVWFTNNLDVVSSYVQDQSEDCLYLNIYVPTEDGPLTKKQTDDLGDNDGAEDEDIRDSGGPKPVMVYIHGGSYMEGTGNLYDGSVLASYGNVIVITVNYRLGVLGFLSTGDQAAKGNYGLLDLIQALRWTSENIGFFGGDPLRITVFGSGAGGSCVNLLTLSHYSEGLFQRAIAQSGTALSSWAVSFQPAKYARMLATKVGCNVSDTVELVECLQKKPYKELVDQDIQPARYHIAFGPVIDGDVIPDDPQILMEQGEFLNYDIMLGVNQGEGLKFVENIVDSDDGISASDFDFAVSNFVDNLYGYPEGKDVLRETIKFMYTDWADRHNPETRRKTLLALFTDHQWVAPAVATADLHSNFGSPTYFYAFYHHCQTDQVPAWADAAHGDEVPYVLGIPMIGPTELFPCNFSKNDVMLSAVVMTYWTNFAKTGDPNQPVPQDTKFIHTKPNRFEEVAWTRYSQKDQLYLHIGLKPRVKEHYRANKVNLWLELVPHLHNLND


Tests used:
Experiment in all cases: SPR
[1] = molecular target: human NL3(–A)_(ECTO) (Gln38-Asp636), immobilised for SPR (human, UniProt Q9NZ94-1 38-636, –A: nothing between Asp152 and Asp193, biotin on the Avitag (in vivo biotinylation by BirA))
[2] = molecular target: T1, human NL5_(ECTO) (NL4(Y)); …
[3] = molecular target: T2, human NL1(+A1+A2–B)_(ECTO), immobilised …
[4] = molecular target: T3, human NL1(+A1–B)_(ECTO), immobilised …
[5] = molecular target: T4, human NL1(+A2–B)_(ECTO), immobilised …
[6] = molecular target: human NL2(–A)_(ECTO) (Glu38-His612), immobilised for SPR (human, UniProt Q8NFZ4 38-612, –A: GPLTKKRDEATLNPPDT between Asp152 and Asp170 absent, biotin on the Avitag (in vivo biotinylation by BirA))
Chain of human NL2(–A)_(ECTO) (Glu38-His612), immobilised for SPR (Q8NFZ4 other isoform, or with tags, fused parts or gaps with the stated changes): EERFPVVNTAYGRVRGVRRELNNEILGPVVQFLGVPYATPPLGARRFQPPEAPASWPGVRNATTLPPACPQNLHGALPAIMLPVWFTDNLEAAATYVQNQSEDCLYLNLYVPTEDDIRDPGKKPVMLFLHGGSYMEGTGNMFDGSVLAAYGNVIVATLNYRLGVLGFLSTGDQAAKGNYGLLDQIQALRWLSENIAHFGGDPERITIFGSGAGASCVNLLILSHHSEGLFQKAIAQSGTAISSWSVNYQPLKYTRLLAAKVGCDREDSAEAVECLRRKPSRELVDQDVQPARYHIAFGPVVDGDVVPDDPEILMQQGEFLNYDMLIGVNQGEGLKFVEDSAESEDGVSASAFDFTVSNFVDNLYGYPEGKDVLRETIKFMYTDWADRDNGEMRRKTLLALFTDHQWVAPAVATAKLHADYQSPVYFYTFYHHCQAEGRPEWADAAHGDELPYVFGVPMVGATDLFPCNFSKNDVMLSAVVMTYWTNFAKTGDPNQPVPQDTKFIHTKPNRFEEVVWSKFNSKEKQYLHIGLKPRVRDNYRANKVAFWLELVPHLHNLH

Chain of human NL3(–A)_(ECTO) (Gln38-Asp636), immobilised for SPR (Q9NZ94 other isoform, or with tags, fused parts or gaps –A: nothing between Asp152 and Asp193): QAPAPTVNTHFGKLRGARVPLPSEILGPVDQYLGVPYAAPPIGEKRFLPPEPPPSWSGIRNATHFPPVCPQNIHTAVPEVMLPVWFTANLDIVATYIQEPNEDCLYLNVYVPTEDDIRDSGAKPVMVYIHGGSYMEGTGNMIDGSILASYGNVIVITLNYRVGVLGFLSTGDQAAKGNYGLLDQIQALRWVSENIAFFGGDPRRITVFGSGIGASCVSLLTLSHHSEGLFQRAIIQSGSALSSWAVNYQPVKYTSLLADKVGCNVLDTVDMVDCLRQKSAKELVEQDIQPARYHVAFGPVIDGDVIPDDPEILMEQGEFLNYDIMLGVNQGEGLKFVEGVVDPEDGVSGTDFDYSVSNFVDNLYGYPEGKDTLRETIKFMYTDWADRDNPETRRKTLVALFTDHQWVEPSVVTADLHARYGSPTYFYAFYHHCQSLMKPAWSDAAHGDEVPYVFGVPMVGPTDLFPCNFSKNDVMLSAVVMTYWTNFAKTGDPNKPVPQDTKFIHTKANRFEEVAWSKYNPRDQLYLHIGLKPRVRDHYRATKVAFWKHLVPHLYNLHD

Binder | Kd [1] | Kd [2] | Kd [3] | Kd [4] | Kd [5] | Kd [6]
human MDGA1 extracellular domain (MDGA1_(ECTO); Gln19-Lys925) (domain or fragment) QGVYAPAQAQIVHAGQACVVKEDNISERVYTIREGDTLMLQCLVTGHPRPQVRWTKTAGSASDKFQETSVFNETLRIERIARTQGGRYYCKAENGVGVPAIKSIRVDVQYLDEPMLTVHQTVSDVRGNFYQEKTVFLRCTVNSNPPARFIWKRGSDTLSHSQDNGVDIYEPLYTQGETKVLKLKNLRPQDYASYTCQVSVRNVCGIPDKAITFRLTNTTAPPALKLSVNETLVVNPGENVTVQCLLTGGDPLPQLQWSHGPGPLPLGALAQGGTLSIPSVQARDSGYYNCTATNNVGNPAKKTVNLLVRSMKNATFQITPDVIKESENIQLGQDLKLSCHVDAVPQEKVTYQWFKNGKPARMSKRLLVTRNDPELPAVTSSLELIDLHFSDYGTYLCMASFPGAPVPDLSVEVNISSETVPPTISVPKGRAVVTVREGSPAELQCEVRGKPRPPVLWSRVDKEAALLPSGLPLEETPDGKLRLERVSRDMSGTYRCQTARYNGFNVRPREAQVQLNVQFPPEVEPSSQDVRQALGRPVLLRCSLLRGSPQRIASAVWRFKGQLLPPPPVVPAAAEAPDHAELRLDAVTRDSSGSYECSVSNDVGSAACLFQVSAKAYSPEFYFDTPNPTRSHKLSKNYSYVLQWTQREPDAVDPVLNYRLSIRQLNQHNAVVKAIPVRRVEKGQLLEYILTDLRVPHSYEVRLTPYTTFGAGDMASRIIHYTEPINSPNLSDNTCHFEDEKICGYTQDLTDNFDWTRQNALTQNPKRSPNTGPPTDISGTPEGYYMFIETSRPRELGDRARLVSPLYNASAKFYCVSFFYHMYGKHIGSLNLLVRSRNKGALDTHAWSLSGNKGNVWQQAHVPISPSGPFQIIFEGVRGPGYLGDIAIDDVTLKKGECPRKQTDPNK | 14600 nM | 23200 nM | 3050 nM | 2080 nM | 3210 nM | 
human β-neurexin-1 LNS6 domain with SS4 (β-NRX1_(LNS6)(+4)) (domain or fragment) not shown | 22100 nM | 14200 nM | 2710 nM | 2820 nM | 2750 nM | 4000 nM

Continued, values first:

Kd [1] | Kd [2] | Kd [3] | Kd [4] | Kd [5] | Kd [6] | Binder
27600 nM | 21900 nM | 1410 nM | 1200 nM | 1460 nM | 768 nM | human MDGA2 extracellular domain (MDGA2_(ECTO); Gln21-Lys927) (domain or fragment) QGVYAPPTVRIVHSGLACNIEEERYSERVYTIREGETLELTCLVTGHPRPQIRWTKTAGSASDRFQDSSVFNETLRITNIQRHQGGRYYCKAENGLGSPAIKSIRVDVYYLDDPVVTVHQSIGEAKEQFYYERTVFLRCVANSNPPVRYSWRRGQEVLLQGSDKGVEIYEPFFTQGETKILKLKNLRPQDYANYSCIASVRNVCNIPDKMVSFRLSNKTASPSIKLLVDDPIVVNPGEAITLVCVTTGGEPAPSLTWVRSFGTLPEKTVLNGGTLTIPAITSDDAGTYSCIANNNVGNPAKKSTNIIVRALKKGRFWITPDPYHKDDNIQIGREVKISCQVEAVPSEELTFSWFKNGRPLRSSERMVITQTDPDVSPGTTNLDIIDLKFTDFGTYTCVASLKGGGISDISIDVNISSSTVPPNLTVPQEKSPLVTREGDTIELQCQVTGKPKPIILWSRADKEVAMPDGSMQMESYDGTLRIVNVSREMSGMYRCQTSQYNGFNVKPREALVQLIVQYPPAVEPAFLEIRQGQDRSVTMSCRVLRAYPIRVLTYEWRLGNKLLRTGQFDSQEYTEYAVKSLSNENYGVYNCSIINEAGAGRCSFLVTGKAYAPEFYYDTYNPVWQNRHRVYSYSLQWTQMNPDAVDRIVAYRLGIRQAGQQRWWEQEIKINGNIQKGELITYNLTELIKPEAYEVRLTPLTKFGEGDSTIRVIKYSAPVNPHLREFHCGFEDGNICLFTQDDTDNFDWTKQSTATRNTKYTPNTGPNADRSGSKEGFYMYIETSRPRLEGEKARLLSPVFSIAPKNPYGPTNTAYCFSFFYHMYGQHIGVLNVYLRLKGQTTIENPLWSSSGNKGQRWNEAHVNIYPITSFQLIFEGIRGPGIEGDIAIDDVSIAEGECAKQDLATK
 | 3160 nM | 784 nM | 766 nM | 795 nM | 699 nM | human β-neurexin-1 LNS6 domain lacking SS4 (β-NRX1_(LNS6)(–4); His85-Val265) (domain or fragment) not shown
